From patent US20190360057

Target: ErbB2 (UniProt P04626)

Src
Src activity (Src kinase assay, Src-Y416 phosphorylation) after trastuzumab treatment: trastuzumab inhibited Src activity in ErbB2 overexpressing cells
